Assay results taken from US20250376539A1 (KIRA PHARMACEUTICALS SUZHOU, published 2025).

T1: recombinant human complement C2 (NP_000054.2), C-terminal 6His-tag, made in house (CHO cell expression) (human, UniProt P06681 21-752)
T1 construct: a linker before the tag is not described; also called human C2; Human C2
T1 sequence: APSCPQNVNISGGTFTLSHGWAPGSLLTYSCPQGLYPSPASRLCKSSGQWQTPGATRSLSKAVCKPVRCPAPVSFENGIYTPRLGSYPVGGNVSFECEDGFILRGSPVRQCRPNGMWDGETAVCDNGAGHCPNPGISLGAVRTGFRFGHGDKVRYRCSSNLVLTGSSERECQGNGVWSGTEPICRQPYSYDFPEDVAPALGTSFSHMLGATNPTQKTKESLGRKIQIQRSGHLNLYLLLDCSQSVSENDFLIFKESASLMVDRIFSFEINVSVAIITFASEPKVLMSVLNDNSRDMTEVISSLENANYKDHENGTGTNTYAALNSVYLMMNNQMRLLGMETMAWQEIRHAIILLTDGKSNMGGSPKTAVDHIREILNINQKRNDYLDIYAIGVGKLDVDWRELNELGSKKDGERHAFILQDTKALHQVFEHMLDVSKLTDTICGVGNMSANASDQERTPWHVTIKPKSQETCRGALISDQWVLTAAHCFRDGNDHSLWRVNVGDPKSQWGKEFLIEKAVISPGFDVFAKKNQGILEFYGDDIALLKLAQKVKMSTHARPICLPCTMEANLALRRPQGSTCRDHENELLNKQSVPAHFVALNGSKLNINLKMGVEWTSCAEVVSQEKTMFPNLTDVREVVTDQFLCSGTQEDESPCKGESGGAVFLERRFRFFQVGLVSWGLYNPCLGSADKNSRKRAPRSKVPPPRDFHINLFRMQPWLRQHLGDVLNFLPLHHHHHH

T2: recombinant cynomolgus (cyno) complement C2 (XP_005553508.1), C-terminal 6His-tag, made in house (CHO cell … (cynomolgus monkey (Macaca fascicularis), UniProt P06681 21-752 (human entry)))
T2 construct: also called cyno C2; Cyno C2
T2 chain: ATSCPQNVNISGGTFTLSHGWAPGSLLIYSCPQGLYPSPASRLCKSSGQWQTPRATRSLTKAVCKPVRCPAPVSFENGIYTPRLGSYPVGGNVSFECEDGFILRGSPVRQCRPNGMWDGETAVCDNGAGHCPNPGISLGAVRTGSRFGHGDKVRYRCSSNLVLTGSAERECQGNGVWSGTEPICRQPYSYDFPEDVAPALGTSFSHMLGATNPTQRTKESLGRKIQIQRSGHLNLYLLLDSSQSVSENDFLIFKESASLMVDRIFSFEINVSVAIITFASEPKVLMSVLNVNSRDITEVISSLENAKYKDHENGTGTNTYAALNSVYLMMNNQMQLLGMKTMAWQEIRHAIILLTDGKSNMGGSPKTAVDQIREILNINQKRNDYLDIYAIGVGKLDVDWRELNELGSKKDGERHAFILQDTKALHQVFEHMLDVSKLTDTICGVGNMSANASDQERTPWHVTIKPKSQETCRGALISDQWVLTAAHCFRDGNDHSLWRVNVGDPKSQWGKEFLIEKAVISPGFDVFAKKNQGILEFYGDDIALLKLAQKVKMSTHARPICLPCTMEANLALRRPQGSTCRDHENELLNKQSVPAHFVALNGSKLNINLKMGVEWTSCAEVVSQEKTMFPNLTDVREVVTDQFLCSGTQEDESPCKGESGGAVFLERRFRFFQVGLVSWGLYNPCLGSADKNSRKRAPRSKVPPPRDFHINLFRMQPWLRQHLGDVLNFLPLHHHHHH

T3: recombinant cyno C2a, C-terminal 6His-tag, made in house (CHO cell expression) (cynomolgus monkey, UniProt P06681 244-752 (human entry))
T3 chain: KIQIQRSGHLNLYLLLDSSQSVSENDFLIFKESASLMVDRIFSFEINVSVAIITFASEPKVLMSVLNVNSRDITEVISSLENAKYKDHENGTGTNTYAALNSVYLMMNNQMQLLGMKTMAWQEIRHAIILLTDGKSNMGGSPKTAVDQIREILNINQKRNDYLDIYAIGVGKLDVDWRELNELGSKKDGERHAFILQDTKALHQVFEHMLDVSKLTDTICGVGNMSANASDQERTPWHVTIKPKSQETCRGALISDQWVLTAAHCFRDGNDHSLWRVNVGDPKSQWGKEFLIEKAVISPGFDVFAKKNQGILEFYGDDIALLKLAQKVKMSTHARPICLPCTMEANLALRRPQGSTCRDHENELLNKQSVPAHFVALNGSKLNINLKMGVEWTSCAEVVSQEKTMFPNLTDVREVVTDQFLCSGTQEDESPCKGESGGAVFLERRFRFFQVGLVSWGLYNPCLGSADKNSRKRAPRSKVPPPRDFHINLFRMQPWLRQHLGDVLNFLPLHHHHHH

T4: recombinant human C2a, C-terminal 6His-tag, made in house (CHO cell expression) (human, UniProt P06681 244-752)
T4 sequence: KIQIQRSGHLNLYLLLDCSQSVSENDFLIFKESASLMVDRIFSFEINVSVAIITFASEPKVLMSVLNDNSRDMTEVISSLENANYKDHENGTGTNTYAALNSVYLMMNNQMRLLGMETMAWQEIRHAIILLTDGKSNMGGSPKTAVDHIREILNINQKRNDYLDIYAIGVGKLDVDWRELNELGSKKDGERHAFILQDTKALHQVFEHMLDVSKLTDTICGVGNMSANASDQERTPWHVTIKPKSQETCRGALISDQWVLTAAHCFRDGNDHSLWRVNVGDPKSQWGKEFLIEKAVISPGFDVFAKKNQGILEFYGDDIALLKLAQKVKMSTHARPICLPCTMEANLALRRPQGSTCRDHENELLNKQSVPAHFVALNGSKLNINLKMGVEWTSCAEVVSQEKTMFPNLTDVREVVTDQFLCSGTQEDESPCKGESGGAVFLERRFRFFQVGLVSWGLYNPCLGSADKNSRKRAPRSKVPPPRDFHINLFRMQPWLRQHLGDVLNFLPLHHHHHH


Columns and labels:
[1] = molecular target: T1, recombinant human complement C2 …; experiment: binding kinetics, neutral pH (BLI presumed)
[2] = molecular target: T1, recombinant human complement C2 …; experiment: BLI (Gator), antibody on probe; 600 s association at pH 7.4, 600 s dissociation at pH 5.8
Procedure: (§1) The histidine mutant constructs in Table 4 were tested for their pH-dependent dissociation from human C2. Probe-immobilized anti-C2 antibodies were incubated with C2 at pH 7.4 for 600s, followed by a 600s dissociation period in K Buffer at pH 7.4 or pH 5.8. The data were processed and analyzed by the Gator evaluation software.

[3] = molecular target: T1, recombinant human complement C2 …; experiment: BLI (Gator), antibody on probe; 600 s association at pH 7.4, 600 s dissociation at pH 7.4
Procedure: as §1

[4] = molecular target: T1, recombinant human complement C2 …; experiment: BLI (Gator); ratio of dissociation at pH 5.8 to pH 7.4
Procedure: as §1

[5] = molecular target: T2, recombinant cynomolgus (cyno) …; experiment: ELISA
[6] = molecular target: T1, recombinant human complement C2 …; experiment: ELISA
[7] = molecular target: T3, recombinant cyno C2a, C-terminal …; experiment: ELISA on cyno C2a, OD450nm against log Ab conc. (nmol/L)
[8] = molecular target: T4, recombinant human C2a, C-terminal …; experiment: ELISA on human C2a, OD450nm against log Ab conc. (nmol/L)

Kd [1] [nM]	koff [1] [s⁻¹]	kon [1] [M⁻¹ s⁻¹]	Dissociation (%) pH 5.8 [2] [%]	Dissociation (%) pH 7.4 [3] [%]	Fold dissociation pH 5.8/pH 7.4 [4] [fold]	EC50 [5] [nM]	EC50 [6] [nM]	binding result [7]	binding result [8]	Binder
0.41	0.000112	272000	66.7	6.42	10.4					3.2 H2-10 × L1-5 (antibody, V domains shown, Histidine mutant of 3.2) VH: EVQLLESGGGLVQPGGSLRLSCAASGFTFRHYAMSWVRQAPGKGLEWVSLISGSGASTHYADSVKGRFTISRDNSENMLYLQMNSLRAEDTAVYYCAKDSLAVAGSEYFQHWGQGTLVTVSS VL: SYVLTQAPSVSVAPGQTARITCGGNYHGGKSVHWYQQRPGQAPVLVVYDDSDRPSGIPERFSGSKSGNTATLAISRVEAGDEAAYYCQVYDTSSDHWVFGGGTKLTVL
						0.0682	0.0514	no binding (tested: 100 nmol/L)	no binding (tested: 100 nmol/L)	anti-C2 antibody 48.14 (antibody, IgG4, V domains shown, Recombinant) VH: EVQLLESGGGLVQPGGSLRLSCAASGFKFSYYAMSWVRQAPGKGLEWVSLISGSGYSTYFADSVKGRFTISRDNSKNTLYLQMNSLRAEDTAVYYCAKDSIAVAGSEYFQHWGQGTLVTVSS VL: SYVLTQPPSVSVAPGQTARITCGGDNIGGKSVHWYQQKPGQAPVLVVYDDSDRPSGIPERFSGSDSGNTATLTISWVEAGDEADYYCQVWDDSSDHWVFGGGTKLTVL
						0.0869	0.0576	no binding (tested: 100 nmol/L)	no binding (tested: 100 nmol/L)	anti-C2 antibody 39.4 (antibody, IgG4, V domains shown, Recombinant) VH: EVQLLESGGGLVQPGGSLSLSCTASGFTFSHYAMSWVRQAPGKGLEWVSVISGSGASTFYADSVKGRFTISRDNSENTLYLQMNSLRAEDTAVYYCAKDSIAVAGSEYFQHWGQGTLVTVSS VL: SYVLTQAPSVSVAPGQTARITCGGNNIGGKTVHWYQQKPGQAPMLVVYDDSDRPSGIPERFSGSKSGNMAILTISRVEAGDEADYYCQLYDIYSDHWVFGGGTKLTVL
0.42	0.000119	283000	68.7	7.61	9					3.2 H2-10 × L3-6 (antibody, V domains shown, Histidine mutant of 3.2) VH: EVQLLESGGGLVQPGGSLRLSCAASGFTFRHYAMSWVRQAPGKGLEWVSLISGSGASTHYADSVKGRFTISRDNSENMLYLQMNSLRAEDTAVYYCAKDSLAVAGSEYFQHWGQGTLVTVSS VL: SYVLTQAPSVSVAPGQTARITCGGNYFGGKSVHWYQQRPGQAPVLVVYDDSDRPSGIPERFSGSKSGNTATLAISRVEAGDEAAYYCQVYDTHSDHWVFGGGTKLTVL
0.329	8.72e-05	265000	56.6	5.45	10.4					3.2 H2-10 × L1-10 (antibody, V domains shown, Histidine mutant of 3.2) VH: EVQLLESGGGLVQPGGSLRLSCAASGFTFRHYAMSWVRQAPGKGLEWVSLISGSGASTHYADSVKGRFTISRDNSENMLYLQMNSLRAEDTAVYYCAKDSLAVAGSEYFQHWGQGTLVTVSS VL: SYVLTQAPSVSVAPGQTARITCGGNYFGGKSHHWYQQRPGQAPVLVVYDDSDRPSGIPERFSGSKSGNTATLAISRVEAGDEAAYYCQVYDTSSDHWVFGGGTKLTVL
						0.0397	0.0408	no binding (tested: 100 nmol/L)	no binding (tested: 100 nmol/L)	anti-C2 antibody 83.16 (antibody, IgG4, V domains shown, Recombinant) VH: QLQLQESGPGLVKSSETLSLTCTVSGGPISSSSYYWGWIRQPPGKGLEWIGTIYYSGRTYYNPSLKSRGTISVGTSKNQFSLKLSSVTAADTAVFYCAGGVGVTWDYWGQGTLVTVSS VL: SYDLSQPLSVSVALGQTARITCGGNDIESKNVHWYQQRPGQAPVLVIYRNSNRPSGIPERFSGSNSGNTATLTISRGQGGDEADYYCQVWDSSTVIFGGGTKLTVL
						0.0521	0.0512	no binding (tested: 100 nmol/L)	no binding (tested: 100 nmol/L)	anti-C2 antibody 34.5 (antibody, IgG4, V domains shown, Recombinant) VH: QVQLQESGPGLVKPSQTLSLTCTVSGGSISRGGHQWTWIRQHPGKGLEWIGYIHHSGSTYYNPSLNDRLTILVDTPKNQFSLKLSSVTAADTAVYYCARWNLGSYGDYWGQGTLVTVSS VL: not shown
						0.05	0.0479	no binding (tested: 100 nmol/L)	no binding (tested: 100 nmol/L)	anti-C2 antibody 199.1 (antibody, IgG4, V domains shown, Recombinant) VH: QVQLQESGPGLVKPSQTLSLTCTVSGGSISRGGHQWSWIRQNPEKGLEWIGYIHHSGSTYYNPSLNNRLTILVDTPKNQFSLKLSSVTAADTAVYYCARWNLGSYGDYWGQGTLVTVSS VL: not shown
